Test results from US20220177587A1, “METHODS AND USES OF VARIANT CD80 FUSION PROTEINS AND RELATED CONSTRUCTS” (Alpine Immune Sciences, Inc., priority 2018, published 2022).

These molecules were tested on human pan T cells (assay: Anti-CD3 coimmobilization assay, IFN-gamma). Conditions: Table E34; culture supernatant, 3 days.
Assay type: cell-based
Method: Costimulatory bioactivity of CD80 fusion variants was determined in anti-CD3 coimmobilization assays. 1 nM or 4 nM mouse anti-human CD3 (OKT3, Biolegends, USA) was diluted in PBS with 1 nM to 80 nM rCD80.Fc variant proteins. This mixture was added to tissue culture treated flat bottom 96-well plates (Corning, USA) overnight to facilitate adherence of the stimulatory proteins to the wells of the plate. The next day, unbound protein was washed off the plates and 100,000 purified human pan T cells (BenTech Bio, US) or human T cell clone BC3 (Astarte Biologics, USA) were added to each well in a final volume of 200 μl of Ex-Vivo 15 media (Lonza, Switzerland). Cells were cultured 3 days before harvesting culture supernatants and measuring human IFN-gamma levels with Duoset ELISA kit (R&D Systems, USA) as described above.

Molecule | Anti-CD3 IFN-gamma Coimmobilization Assay [pg/mL]
I69T, L70Q, A91G, T120S (protein, CD80 v105 ECD) VIHVTKEVKEVATLSCGHNVSVEELAQTRIYWQKEKKMVLTMMSGDMNIWPEYKNRTIFDITNNLSIVTQALRPSDEGTYECVVLKYEKDGFKREHLAEVTLSVKADFPTPSISDFEIPSSNIRRIICSTSGGFPEPHLSWLENGEELNAINTTVSQDPETELYAVSSKLDFNMTTNHSFMCLIKYGHLRVNQTFNWNTTKQEHFPDN | 509
I118T, C128R (protein, CD80 v118 ECD) VIHVTKEVKEVATLSCGHNVSVEELAQTRIYWQKEKKMVLTMMSGDMNIWPEYKNRTIFDITNNLSIVILALRPSDEGTYECVVLKYEKDAFKREHLAEVTLSVKADFPTPSISDFETPTSNIRRIIRSTSGGFPEPHLSWLENGEELNAINTTVSQDPETELYAVSSKLDFNMTTNHSFMCLIKYGHLRVNQTFNWNTTKQEHFPDN | 122
Q27R, R29C, M42T, S129P, E160G (protein, CD80 v119 ECD) VIHVTKEVKEVATLSCGHNVSVEELARTCIYWQKEKKMVLTTMSGDMNIWPEYKNRTIFDITNNLSIVILALRPSDEGTYECVVLKYEKDAFKREHLAEVTLSVKADFPTPSISDFEIPTSNIRRIICPTSGGFPEPHLSWLENGEELNAINTTVSQDPGTELYAVSSKLDFNMTTNHSFMCLIKYGHLRVNQTFNWNTTKQEHFPDN | 139
S129P, T154A (protein) VIHVTKEVKEVATLSCGHNVSVEELAQTRIYWQKEKKMVLTMMSGDMNIWPEYKNRTIFDITNNLSIVILALRPSDEGTYECVVLKYEKDAFKREHLAEVTLSVKADFPTPSISDFEIPTSNIRRIICPTSGGFPEPHLSWLENGEELNAINTAVSQDPETELYAVSSKLDFNMTTNHSFMCLIKYGHLRVNQTFNWNTTKQEHFPDN | 156
Y31H, S129P (protein, CD80 v106 ECD) VIHVTKEVKEVATLSCGHNVSVEELAQTRIHWQKEKKMVLTMMSGDMNIWPEYKNRTIFDITNNLSIVILALRPSDEGTYECVVLKYEKDAFKREHLAEVTLSVKADFPTPSISDFEIPTSNIRRIICPTSGGFPEPHLSWLENGEELNAINTTVSQDPETELYAVSSKLDFNMTTNHSFMCLIKYGHLRVNQTFNWNTTKQEHFPDN | 76
H18L, R29D, Y31L, Q33H, K36G, M38I, T41A, M43R, M47T, E81V, L85R, K89N, A91T, F92P, K93V, R94L, L97R, T130A, N149S (protein, UniProt P33681 35-288, looked up, variant H18L R29D Y31L Q33H K36G M38I T41A M43R M47T E81V L85R K89N A91T F92P K93V R94L L97R T130A N149S) T-lymphocyte activation …: VIHVTKEVKEVATLSCGLNVSVEELAQTDILWHKEGKIVLAMRSGDTNIWPEYKNRTIFDITNNLSIVILALRPSDEGTYVCVVRKYENDTPVLEHRAEVTLSVKADFPTPSISDFEIPTSNIRRIICSASGGFPEPHLSWLENGEELSAINTTVSQDPETELYAVSSKLDFNMTTNHSFMCLIKYGHLRVNQTFNWNTTKQEHFPDNLLPSWAITLISVNGIFVICCLTYCFAPRCRERRRNERLRRESVRPV | 96
T28A, R29D, Y31L, Q33H, K36G, M38I, T41A, M43R, M47T, E81V, L85R, K89N, A91T, F92P, K93V, R94L, V104L, T130A, N149S (protein) VIHVTKEVKEVATLSCGHNVSVEELAQADILWHKEGKIVLAMRSGDTNIWPEYKNRTIFDITNNLSIVILALRPSDEGTYVCVVRKYENDTPVLEHLAEVTLSLKADFPTPSISDFEIPTSNIRRIICSASGGFPEPHLSWLENGEELSAINTTVSQDPETELYAVSSKLDFNMTTNHSFMCLIKYGHLRVNQTFNWNTTKQEHFPDN | 116
R29D, Y31L, Q33H, K36G, M38I, T41A, M43R, M47T, E81V, L85R, K89N, A91T, F92P, K93V, R94L, I118T, T130A, N149S, K169I (protein) VIHVTKEVKEVATLSCGHNVSVEELAQTDILWHKEGKIVLAMRSGDTNIWPEYKNRTIFDITNNLSIVILALRPSDEGTYVCVVRKYENDTPVLEHLAEVTLSVKADFPTPSISDFETPTSNIRRIICSASGGFPEPHLSWLENGEELSAINTTVSQDPETELYAVSSILDFNMTTNHSFMCLIKYGHLRVNQTFNWNTTKQEHFPDN | 101
R29D, Y31L, Q33H, K36G, M38I, T41A, M43R, M47T, E81V, L85R, K89N, A91T, F92P, K93V, R94F, T130A, N149S, K169I (protein) VIHVTKEVKEVATLSCGHNVSVEELAQTDILWHKEGKIVLAMRSGDTNIWPEYKNRTIFDITNNLSIVILALRPSDEGTYVCVVRKYENDTPVFEHLAEVTLSVKADFPTPSISDFEIPTSNIRRIICSASGGFPEPHLSWLENGEELSAINTTVSQDPETELYAVSSILDFNMTTNHSFMCLIKYGHLRVNQTFNWNTTKQEHFPDN | 114
R29D, Y31L, Q33H, K36G, M38I, T41A, M43R, M47T, N48D, F59L, E81V, L85R, K89N, A91T, F92P, K93V, R94L, I118V, T120S, I127T, T130A, H188D (protein) VIHVTKEVKEVATLSCGHNVSVEELAQTDILWHKEGKIVLAMRSGDTDIWPEYKNRTILDITNNLSIVILALRPSDEGTYVCVVRKYENDTPVLEHLAEVTLSVKADFPTPSISDFEVPSSNIRRITCSASGGFPEPHLSWLENGEELNAINTTVSQDPETELYAVSSKLDFNMTTNHSFMCLIKYGDLRVNQTFNWNTTKQEHFPDN | 230
R29D, Y31L, Q33H, K36G, M38I, T41A, M43R, M47T, E81V, L85R, K89N, A91T, F92P, K93V, R94L, V22A, I118T, T130A, N149S (protein) VIHVTKEVKEVATLSCGHNVSAEELAQTDILWHKEGKIVLAMRSGDTNIWPEYKNRTIFDITNNLSIVILALRPSDEGTYVCVVRKYENDTPVLEHLAEVTLSVKADFPTPSISDFETPTSNIRRIICSASGGFPEPHLSWLENGEELSAINTTVSQDPETELYAVSSKLDFNMTTNHSFMCLIKYGHLRVNQTFNWNTTKQEHFPDN | 124
H18L, R29D, Y31L, Q33H, K36G, M38I, T41A, M43R, M47T, E81V, L85R, K89N, A91T, F92P, K93V, R94L, L97R, N149S, H188Q (protein) VIHVTKEVKEVATLSCGLNVSVEELAQTDILWHKEGKIVLAMRSGDTNIWPEYKNRTIFDITNNLSIVILALRPSDEGTYVCVVRKYENDTPVLEHRAEVTLSVKADFPTPSISDFEIPTSNIRRIICSTSGGFPEPHLSWLENGEELSAINTTVSQDPETELYAVSSKLDFNMTTNHSFMCLIKYGQLRVNQTFNWNTTKQEHFPDN | 125
R29D, Y31L, Q33H, K36G, M38I, T41A, M43R, M47T, E81V, L85R, K89N, A91T, F92P, K93V, R94L, I118V, T120S, T130A, K169E, M174T (protein) VIHVTKEVKEVATLSCGHNVSVEELAQTDILWHKEGKIVLAMRSGDTNIWPEYKNRTIFDITNNLSIVILALRPSDEGTYVCVVRKYENDTPVLEHLAEVTLSVKADFPTPSISDFEVPSSNIRRIICSASGGFPEPHLSWLENGEELNAINTTVSQDPETELYAVSSELDFNTTTNHSFMCLIKYGHLRVNQTFNWNTTKQEHFPDN | 141
R29D, Y31L, Q33H, K36G, M38I, T41A, M43R, M47T, E81V, L85R, K89N, A91T, F92P, K93V, R94L, H18L, V68A, T130A, N149S, T154I (protein) VIHVTKEVKEVATLSCGLNVSVEELAQTDILWHKEGKIVLAMRSGDTNIWPEYKNRTIFDITNNLSIAILALRPSDEGTYVCVVRKYENDTPVLEHLAEVTLSVKADFPTPSISDFEIPTSNIRRIICSASGGFPEPHLSWLENGEELSAINTIVSQDPETELYAVSSKLDFNMTTNHSFMCLIKYGHLRVNQTFNWNTTKQEHFPDN | 132
R29D, Y31L, Q33H, K36G, M38I, T41A, M43R, M47T, E81V, L85R, K89N, A91T, F92P, K93V, R94L, I118T, T130A, N149S, K169I, Q193L (protein) VIHVTKEVKEVATLSCGHNVSVEELAQTDILWHKEGKIVLAMRSGDTNIWPEYKNRTIFDITNNLSIVILALRPSDEGTYVCVVRKYENDTPVLEHLAEVTLSVKADFPTPSISDFETPTSNIRRIICSASGGFPEPHLSWLENGEELSAINTTVSQDPETELYAVSSILDFNMTTNHSFMCLIKYGHLRVNLTFNWNTTKQEHFPDN | 130
R29D, Y31L, Q33H, K36G, M38I, T41A, M43R, M47T, E81V, L85R, K89N, A91T, F92P, K93V, R94L, I118T, T130A, N149S (protein) VIHVTKEVKEVATLSCGHNVSVEELAQTDILWHKEGKIVLAMRSGDTNIWPEYKNRTIFDITNNLSIVILALRPSDEGTYVCVVRKYENDTPVLEHLAEVTLSVKADFPTPSISDFETPTSNIRRIICSASGGFPEPHLSWLENGEELSAINTTVSQDPETELYAVSSKLDFNMTTNHSFMCLIKYGHLRVNQTFNWNTTKQEHFPDN | 89
